Data published in the supplement of paper PMC7125110.
± gives the standard error. This sample holds only a part of the variants without activity.

B1: glmS ribozyme (parent)
chain: AUAAAAGCGCCAGAACUACAGAAAUGUAGUUGACGAGGAGGAGGUUUAUCGAAUUUUCGGCGGAUGCCUCCAAA

Variants of: B1
Assay: self-cleavage kobs at 10000 uM GlcN6P; higher = faster cleavage; RNA array
Details: with glucosamine-6-phosphate
Method in brief: (§1)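 kcat and KM were obtained from weighted Michaelis–Menten fits across concentrations of kobs values. Those came from one- or two-exponential decay fits to per-tile medians normalised to baseline and to non-cleaving reference variants. The variants were barcoded ribozymes transcribed in situ by E. coli RNA polymerase on sequenced MiSeq chips and tracked through a hybridised Cy3 probe at 37 °C, with 40 μM to 10 mM glucosamine-6-phosphate in HEPES/KCl/Mg(OAc)2 buffer flowed in.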

Row | Variant | self-cleavage kobs at 10000 uM GlcN6P [s⁻¹]
1 | C16A G35U G60U | < 1e-05
2 | G7C A15C G41A | < 1e-05
3 | U30A U31C A53G | 0.00407 ± 0.0007
4 | A15G A52G C67U C71G | 4.89e-05 ± 1.3e-05
5 | G40A A64U | 2.07e-05 ± 9.5e-06
6 | G29A C67U C70U | 6.18e-05 ± 1.1e-05
7 | G7U C11U C16A U45A G51A G60C | < 1e-05
8 | C34A C58G C68G | 0.000608 ± 0.00016
9 | A14G U30G U47C | 0.00168 ± 0.00041
10 | G29A C58U C70U | 5.99e-05 ± 1.7e-05
11 | C11G G35C U49G | < 1e-05
12 | C11U U69C | 0.000482 ± 9.2e-05
13 | A14C G51U | < 1e-05
14 | C16U U45C U55G | 0.00144 ± 0.0003
15 | A6G U55G C70U | 8.99e-05 ± 1.5e-05
16 | A33C G35C U47A | < 1e-05
17 | A12G U55A C68U | 0.00042 ± 0.0001
18 | A14C A15U G32C C58U | 3.19e-05 ± 1.1e-05
19 | C34G A64C C67A | < 1e-05
20 | A14G C50G C70U | 9.53e-05 ± 1.4e-05
21 | A6C U31C U45A U57G | < 1e-05
22 | A15G A33C U46G | 4.59e-05 ± 1.3e-05
23 | C11A U31C U45A | 4.34e-05 ± 1.5e-05
24 | G13A G43U U45G | 6.53e-05 ± 2.3e-05

Row | Variant | self-cleavage kobs at 10000 uM GlcN6P [s⁻¹]
25 | G7U G9U G44A C68G | < 1e-05
26 | A12U U47G A52U U69G | 6.72e-05 ± 3e-05
27 | A14C A42C U46G A52G | < 1e-05
28 | U31C G32A U47G C67A | 6.62e-05 ± 1.4e-05
29 | G37C U54A | 4.2e-05 ± 1e-05
30 | A36G G40U C68A | < 1e-05
31 | G7U A48G C50G C61G | 0.000895 ± 0.00024
32 | G41A A52U | 9.26e-05 ± 1.6e-05
33 | A6G C16U G29C | 6.83e-05 ± 1.6e-05
34 | G7U A15U C50G A53U U55G G62U | 7.67e-05 ± 2.5e-05
35 | U30G U49A C68A | < 1e-05
36 | C10U G13A G40U | < 1e-05
37 | U31G G43C U45G | 0.000273 ± 8.2e-05
38 | C11U G29A A39C | 3.89e-05 ± 1.6e-05
39 | A39U G60A U65G | < 1e-05
40 | G9C G38C G43U | < 1e-05
41 | G9A A53G | 3.28e-05 ± 1.3e-05
42 | C16U G44A U54G | 0.000358 ± 7.9e-05
43 | C10G C11A G38C G43U G51C U56C G60C | < 1e-05
44 | G9C C10G A52U C71A | < 1e-05
45 | G13U G40A G66C C71A | 2.79e-05 ± 1.3e-05
46 | A36C G37C A53U U69C | < 1e-05
47 | A36C U46A C58A | < 1e-05
48 | A48U G62C C67G | < 1e-05

Row | Variant | self-cleavage kobs at 10000 uM GlcN6P [s⁻¹]
49 | C16U G29U G32C | 8.38e-05 ± 1.7e-05
50 | C10U U30A C68U | < 1e-05
51 | A6G U45A U57G | < 1e-05
52 | A14C A39G C58G | 8.88e-05 ± 1.6e-05
53 | G35C G38U G43A G51C G60C | < 1e-05
54 | A12G U30G A53U | 9.4e-05 ± 2e-05
55 | A33U A53C G62U | < 1e-05
56 | C34U G44U U54A G63C | < 1e-05
57 | A14G C58U C71U | 0.00012 ± 2.1e-05
58 | A15U C50A G51A A53G | < 1e-05
59 | G38A U46G U57G C58A | < 1e-05
60 | A6U C50G A53C C71A | 4.1e-05 ± 2e-05
61 | G13U A36U A53C | < 1e-05
62 | U30G G62A C67A | < 1e-05
63 | G13U A39G C68U | 0.000334 ± 8.3e-05
64 | G13C U49G G59U | < 1e-05
65 | G7A C71U | 3.82e-05 ± 1e-05
66 | A14C G38C G60U | < 1e-05
67 | A33C G35A U46G C50U U56G C71A | < 1e-05
68 | C10U G37C G43C U47C | < 1e-05
69 | G35A G38U A53C C70U | < 1e-05
70 | U55A A64U C71A | 4.3e-05 ± 1.9e-05
71 | G7C G9U A14G | < 1e-05
72 | U55G C61A | < 1e-05

Row | Variant | self-cleavage kobs at 10000 uM GlcN6P [s⁻¹]
73 | G29U U46A U54C | 7.78e-05 ± 2e-05
74 | C10A A14C U30G | < 1e-05
75 | U31G G38C G40C G60C U69A C71A | < 1e-05
76 | G9C C11U C61G | 0.000219 ± 4.5e-05
77 | A36U G51U C68G | 4.33e-05 ± 1.7e-05
78 | A12U G13C A52U G60A A64C | < 1e-05
79 | G35A U54G G62C | < 1e-05
80 | G37C G59U C61G | < 1e-05
81 | G59U G62A A64G | < 1e-05
82 | G29U G40A A52C C67A | < 1e-05
83 | C50G G62C C70A | 0.000153 ± 4.6e-05
84 | A33U A53U G59U | < 1e-05
85 | C10A C11A G44A | < 1e-05
86 | C34U G38U G40U | < 1e-05
87 | C10G A39U A48C | < 1e-05
88 | A6C C10G U31A G43U C70U | < 1e-05
89 | G59A C68A U69A | < 1e-05
90 | A6C G9C C50A C58A A64U C70G | < 1e-05
91 | A6C G32U C50A | < 1e-05
92 | U31G U56C C58U | 6.36e-05 ± 1.2e-05
93 | A15U G41U A48U U55C | < 1e-05
94 | A39U U46A A53G | 0.00108 ± 0.00026
95 | C58U G63C C70U | < 1e-05
96 | A14G A64G C68G | < 1e-05

Row | Variant | self-cleavage kobs at 10000 uM GlcN6P [s⁻¹]
97 | G7C G35U G38U | < 1e-05
98 | G37C A48G G62U | < 1e-05
99 | G13C A42C C50U | < 1e-05
100 | U56A U69C C71G | 8.19e-05 ± 2e-05
101 | A14G G44C U55G C67U | 0.000221 ± 4.1e-05
102 | U31G U47C U54A | 0.00049 ± 8.9e-05
103 | A33G G35U A39G A53U G62C | < 1e-05
104 | A12C G37A A39C | 0.000849 ± 0.00015
105 | C10G G40U U46C C71U | < 1e-05
106 | U30A A48G C68A | < 1e-05
107 | A6U A33G C34U G44U U49C U57G | < 1e-05
108 | A33U G44A G63U | < 1e-05
109 | A12U C16G G40U | 0.000769 ± 0.00016
110 | A14C A39U C67G | 0.000928 ± 0.00017
111 | A15U A39G G62A | < 1e-05
112 | C10G A42C U69G | < 1e-05
113 | A12C G26A G41A U54G | 0.00044 ± 0.00012
114 | G13A C50G G66U | 6.48e-05 ± 2.1e-05
115 | A6C C8A A36C | < 1e-05
116 | G13A U46A | 4.05e-05 ± 1.3e-05
117 | G40C G41A C50U | < 1e-05
118 | U46G U55G G66U | 0.000444 ± 0.00018
119 | A15C C16G U56A C61G | < 1e-05
120 | A6G A12C U56G | 5.92e-05 ± 1.5e-05

Variants of: B1
Assay: self-cleavage kobs at 2500 uM GlcN6P; higher = faster cleavage; RNA array
Details: with glucosamine-6-phosphate
Method in brief: as §1

Row | Variant | self-cleavage kobs at 2500 uM GlcN6P [s⁻¹]
121 | A14G G60U G66A | < 1e-05
122 | G13C G59A G66A C68U | < 1e-05
123 | A15C C34G U57A | < 1e-05
124 | C8U U57G C71G | < 1e-05
125 | C11G G35C U49G | < 1e-05
126 | C11A C16U A23C A39G U54C C58U | < 1e-05
127 | C50U A64U C71U | < 1e-05
128 | G29A G41U C68U | < 1e-05
129 | G43U U49G C61G | < 1e-05
130 | G9A G29C G35A G44U U46A A64C | < 1e-05
131 | A14C A39C C71U | 4.93e-05 ± 1.7e-05
132 | C16G U30A A42C U69G | 0.000262 ± 6.8e-05
133 | C68U U69C C70U | 3.99e-05 ± 1.4e-05
134 | A6G C16U G29C | 6.69e-05 ± 2e-05
135 | U55A C67U C68G C70A | 0.000233 ± 8.8e-05
136 | G7U A42C A64U G66U | < 1e-05
137 | G32C G35C U56C | < 1e-05
138 | A39U G60A U65G | < 1e-05
139 | A15U G51U U65A | < 1e-05
140 | C16G A52G U55G | 9.56e-05 ± 4.1e-05
141 | C8A C10U G35A G38A C68U | 4.94e-05 ± 1.7e-05
142 | A14C A39G C58G | 5e-05 ± 1.9e-05
143 | A15G G29U A39G C67U | 0.000169 ± 5.3e-05
144 | A6U C16G A36U G41U G43C | < 1e-05
145 | A6C A52U G60A | < 1e-05
146 | A39G U57A C61A | < 1e-05

Row | Variant | self-cleavage kobs at 2500 uM GlcN6P [s⁻¹]
147 | A12U G43U C50U G59A | < 1e-05
148 | G13U A36U A53C | < 1e-05
149 | C16A A36C A42C U55C U56A U57G C58U C71G | < 1e-05
150 | A1U A15G A36U | < 1e-05
151 | C16G G43U G62A | < 1e-05
152 | A15G G44U U54C | 0.00016 ± 3.1e-05
153 | G7U C11U G51C | < 1e-05
154 | A15U U31G G40A | 0.000101 ± 2.5e-05
155 | A6U C50A G51U | < 1e-05
156 | A14U A48C C70U | 3.58e-05 ± 1.6e-05
157 | A6U A52G U69C | 5.25e-05 ± 2.2e-05
158 | C11U U31A G32A G38A C70G | 7.58e-05 ± 2.6e-05
159 | A15G G37U C61A C68A C70G | 4.28e-05 ± 2e-05
160 | G29C G40C U54A | 6.31e-05 ± 2.5e-05
161 | G29C A33G A53U A64G U69G | 0.000129 ± 4.1e-05
162 | C10A G35U A48C | < 1e-05
163 | A12G G32U C34U A53U | < 1e-05
164 | G40A U55C C58G | < 1e-05
165 | A33U G51U C67U | < 1e-05
166 | C11G A14G G43U G60C | < 1e-05
167 | A14G G43C U57C | < 1e-05
168 | G38C A39U A53G U65C | < 1e-05
169 | C11G G35A C61A | < 1e-05
170 | C16U A39U U46C A64G C71G | 9.88e-05 ± 3.4e-05
171 | A6G A12C U56G | 5.25e-05 ± 2.1e-05
